Source: patent US20250019427A1 (BYOMASS, published 2025)
Changes are numbered by the printed parent chain. Blank lines part the entries; values can stand above or below the binder they belong to.

Tests used:
GDF15 = biological target: T1, GDF15 (Homo sapiens (Human), UniProt Q99988 30-308); assay: cell-based or functional assay
T1 sequence: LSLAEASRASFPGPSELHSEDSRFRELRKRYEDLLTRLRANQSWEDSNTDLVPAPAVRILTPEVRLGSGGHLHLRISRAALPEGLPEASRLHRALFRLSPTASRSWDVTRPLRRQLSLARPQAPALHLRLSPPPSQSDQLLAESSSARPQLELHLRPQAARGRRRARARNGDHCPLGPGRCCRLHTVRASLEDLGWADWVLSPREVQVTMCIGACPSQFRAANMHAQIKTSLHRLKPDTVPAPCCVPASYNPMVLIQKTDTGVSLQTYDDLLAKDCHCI

GDNF = biological target: T2, GDNF (UniProt P39905 78-211); assay: Octet BLI, IgG on tip, avid
T2 sequence (looked up): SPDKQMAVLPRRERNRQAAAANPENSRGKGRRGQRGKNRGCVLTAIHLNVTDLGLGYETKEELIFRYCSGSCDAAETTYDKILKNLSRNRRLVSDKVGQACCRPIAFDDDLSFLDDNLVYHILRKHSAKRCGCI

GDF8 = GDF8 (UniProt O14793 267-375); assay: Octet BLI, IgG on tip, avid
GDF11 = biological target: T3, GDF11 (UniProt O95390 299-407); assay: Octet BLI, IgG on tip, avid
T3 construct: Also the GDF-11 ligand of the ActRIIB/SMAD reporter assay

Human Activin A Fc = biological target: T4, Human Activin A Fc (human, UniProt P08476 311-426); assay: Octet BLI, IgG on tip, avid
T4 sequence (looked up): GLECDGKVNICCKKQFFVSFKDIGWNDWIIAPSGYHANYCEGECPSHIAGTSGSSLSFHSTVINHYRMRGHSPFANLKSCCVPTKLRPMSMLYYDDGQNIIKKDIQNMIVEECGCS

Human Activin B = biological target: T5, Human Activin B (human, UniProt P09529 293-407); assay: Octet BLI, IgG on tip, avid
T5 construct: Also used for the Activin B ligand of the ActRIIB/SMAD reporter assay, where the species is not restated
T5 sequence (looked up): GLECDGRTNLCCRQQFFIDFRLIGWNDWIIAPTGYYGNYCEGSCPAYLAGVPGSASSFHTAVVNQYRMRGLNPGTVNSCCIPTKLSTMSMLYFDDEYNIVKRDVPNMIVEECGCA

GDF10 [1] = biological target: T6, GDF10 (UniProt P55107 369-478); assay: Octet BLI, IgG on tip, avid; P.F. = binder with poor fit
T6 sequence (looked up): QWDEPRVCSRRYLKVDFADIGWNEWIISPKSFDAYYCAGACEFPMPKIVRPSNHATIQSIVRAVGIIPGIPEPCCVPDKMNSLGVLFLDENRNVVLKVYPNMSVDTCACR

Human BMP9 = biological target: T7, Human BMP9 (human, UniProt Q9UK05 320-429); assay: as above
T7 sequence (looked up): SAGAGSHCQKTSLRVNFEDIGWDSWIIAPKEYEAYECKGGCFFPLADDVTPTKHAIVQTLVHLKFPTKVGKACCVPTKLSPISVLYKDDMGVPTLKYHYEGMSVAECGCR

Human BMP10 = biological target: T8, Human BMP10 (human, UniProt O95393 317-424); assay: as above
T8 sequence (looked up): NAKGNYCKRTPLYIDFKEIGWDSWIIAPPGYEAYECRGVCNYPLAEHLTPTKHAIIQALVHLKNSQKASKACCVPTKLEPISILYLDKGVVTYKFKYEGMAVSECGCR

GDF10 [2] = biological target: T6, GDF10; assay: Octet BLI, IgG on tip, avid
Cyno GDF15 Fc = biological target: T9, Cyno GDF15 Fc (cyno, UniProt G7PWZ3 193-308); assay: Octet BLI, IgG on AHC tip, avid
T9 construct: also called cyno GDF15-Fc fusion
T9 sequence: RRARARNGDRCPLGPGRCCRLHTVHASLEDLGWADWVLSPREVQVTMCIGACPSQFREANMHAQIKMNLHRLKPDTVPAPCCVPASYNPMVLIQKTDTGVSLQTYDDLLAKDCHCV
Protocol: (§1) Briefly, ForteBio affinity measurements were performed by loading IgGs on-line onto AHC sensors. Sensors were equilibrated off-line in assay buffer for 30 min and then monitored on-line for 60 seconds for baseline establishment. Sensors with loaded IgGs were exposed to 100 nM antigen for 3 minutes, and afterwards were transferred to assay buffer for 3 min for off-rate measurement. All kinetics were analyzed using the 1:1 binding model.

Mouse GDF15 Fc = biological target: T10, Mouse GDF15 Fc (mouse, UniProt Q9Z0J7 189-303, limits assumed); assay: Octet BLI, IgG on AHC tip, avid
T10 construct: also called mouse GDF15Fc fusion
T10 sequence (looked up): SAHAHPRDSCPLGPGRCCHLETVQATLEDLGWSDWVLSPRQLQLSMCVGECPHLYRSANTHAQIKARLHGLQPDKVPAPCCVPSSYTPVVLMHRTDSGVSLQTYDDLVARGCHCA
Protocol: as §1

Rat GDF-15 Fc = biological target: T11, Rat GDF-15 Fc (rat, UniProt Q9Z0J6 189-303, limits assumed); assay: Octet BLI, IgG on AHC tip, avid
T11 sequence (looked up): T10 sequence (looked up) with A4L, Q63L, K75R, R110Q
Protocol: as §1

T3 sequence (O95390 299-407 limits assumed): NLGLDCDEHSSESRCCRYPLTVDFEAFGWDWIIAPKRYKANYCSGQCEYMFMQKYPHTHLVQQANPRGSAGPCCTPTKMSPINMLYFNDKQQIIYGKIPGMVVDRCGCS

GDF15 - GFRAL RET pERK IC50 (pM) (GDF15): 102 pM
GDF15 - GFRAL-RET Luciferase IC50 (pM) (GDF15): 75 pM
binding result (GDNF): no binding (tested: 100 nM)
binding result (GDF8): no binding (tested: 100 nM)
binding result (GDF11): no binding (tested: 100 nM)
Kd (Human Activin A Fc): 7.34 nM
binding result (Human Activin B): no binding (tested: 100 nM)
binding result (GDF10 [1]): binds
binding result (Human BMP9): binds
binding result (Human BMP10): binds
B1: Clone A IgG (antibody, V domains shown)
VH: QVQLQESGPGLVKPSQTLSLTCTVSGGSITSGGSYWSWIRQHPGKGLEWIGAIVYSGSTYYNPSLKSRVTISVDTSKNQFSLKLSSVTAADTAVYYCARGVEYQHFDYWGQGTLVTVSS
VL: not shown
notes: IgG format

GDF15 - GFRAL RET pERK IC50 (pM) (GDF15): 66.7 pM
GDF15 - GFRAL-RET Luciferase IC50 (pM) (GDF15): 97.1 pM
binding result (GDNF): no binding (tested: 100 nM)
binding result (GDF8): no binding (tested: 100 nM)
Kd (GDF10 [2]): 36.8 nM
binding result (GDF11): no binding (tested: 100 nM)
binding result (Human Activin A Fc): no binding (tested: 100 nM)
binding result (Human Activin B): no binding (tested: 100 nM)
Kd (Cyno GDF15 Fc): 0.107 nM
Kd (Mouse GDF15 Fc): 0.191 nM
Kd (Rat GDF-15 Fc): 1.01 nM
binding result (Human BMP9): binds
binding result (Human BMP10): binds
B2: Clone G IgG (antibody, V domains shown)
VH: QVQLVQSGAEVKKPGSSVKVSCKASGGTFQGYAISWARQAPGQGLEWMGGIIPPYATANYAQKFQGRVTITADESTSTAYMELSSLRSEDTAVYYCARGVGELHLDVWGQGTMVTVSS
VL: not shown
notes: IgG format
